From patent EP2495257A2 (Abbott Laboratories, dated 2012)
Values belong to the binder of their own block, whether it stands above or below them.

Key:
[1] = target: T1, human IL-18 (human, UniProt Q14116 37-193); test: cell-based or functional assay
[2] = target: T1, human IL-18; test: SPR (Biacore)
[3] = target: T2, human IL-12 (human, UniProt P29459 23-219; P29460 23-328); test: cell-based or functional assay
T2 sequence (looked up) 1: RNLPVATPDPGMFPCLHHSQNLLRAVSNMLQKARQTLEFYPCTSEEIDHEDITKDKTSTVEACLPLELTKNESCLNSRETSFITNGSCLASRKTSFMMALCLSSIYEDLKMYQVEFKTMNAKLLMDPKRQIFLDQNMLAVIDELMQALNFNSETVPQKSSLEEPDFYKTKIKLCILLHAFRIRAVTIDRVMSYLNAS
T2 sequence (looked up) 2: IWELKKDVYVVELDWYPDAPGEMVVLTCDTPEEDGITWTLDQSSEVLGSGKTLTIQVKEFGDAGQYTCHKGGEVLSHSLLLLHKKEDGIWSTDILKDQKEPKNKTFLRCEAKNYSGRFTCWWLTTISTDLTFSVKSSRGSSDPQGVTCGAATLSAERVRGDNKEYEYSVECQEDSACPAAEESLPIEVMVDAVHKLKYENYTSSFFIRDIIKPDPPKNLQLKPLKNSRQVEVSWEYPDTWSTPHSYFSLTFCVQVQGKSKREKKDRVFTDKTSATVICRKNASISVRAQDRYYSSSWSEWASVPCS

Kd [2]: 0.11 nM | Potency (IC50, M), KG-1 bioassay [1]: 4e-11 M
B2: DVD1812SL (anti-IL-18/IL-12 DVD-Ig, 18-12-C, short linker) (bispecific antibody, human IgG1, kappa)
heavy: not shown
light: EIVMTQSPATLSVSPGERATLSCRASESISSNLAWYQQKPGQAPRLFIYTASTRATDIPARFSGSGSGTEFTLTISSLQSEDFAVYYCQQYNNWPSITFGQGTRLEIKRTVAAPQSVLTQPPSVSGAPGQRVTISCSGSRSNIGSNTVKWYQQLPGTAPKLLIYYNDQRPSGVPDRFSGSKSGTSASLAITGLQAEDEADYYCQSYDRYTHPALLFGTGTKVTVLGTVAAPSVFIFPPSDEQLKSGTASVVCLLNNFYPREAKVQWKVDNALQSGNSQESVTEQDSKDSTYSLSSTLTLSKADYEKHKVYACEVTHQGLSSPVTKSFNRGEC
notes: also called DVD1812HC-SL / DVD1812LC-SL

Potency (IC50, M), KG-1 bioassay [1]: 7.8e-11 M
B4: DVD1812LL (anti-IL-18/IL-12 DVD-Ig, 18-12-C, long linker) (bispecific antibody, human IgG1, kappa)
heavy: not shown
light: EIVMTQSPATLSVSPGERATLSCRASESISSNLAWYQQKPGQAPRLFIYTASTRATDIPARFSGSGSGTEFTLTISSLQSEDFAVYYCQQYNNWPSITFGQGTRLEIKRTVAAPSVFIFPPQSVLTQPPSVSGAPGQRVTISCSGSRSNIGSNTVKWYQQLPGTAPKLLIYYNDQRPSGVPDRFSGSKSGTSASLAITGLQAEDEADYYCQSYDRYTHPALLFGTGTKVTVLGTVAAPSVFIFPPSDEQLKSGTASVVCLLNNFYPREAKVQWKVDNALQSGNSQESVTEQDSKDSTYSLSSTLTLSKADYEKHKVYACEVTHQGLSSPVTKSFNRGEC

Continued, binder first:

B1: ABT-325 (fully human anti-human IL-18 mAb) (antibody, V domains shown)
VH: EVQLVQSGTEVKKPGESLKISCKGSGYTVTSYWIGWVRQMPGKGLEWMGFIYPGDSETRYSPTFQGQVTISADKSFNTAFLQWSSLKASDTAMYYCARVGSGWYPYTFDIWGQGTMVTVSS
VL: not shown
IC50 (M), KG-1 bioassay (IL-18-induced IFN-γ production) [1]: 3e-10 M

B3: ABT-874 (fully human anti-human IL-12p40 mAb) (antibody, V domains shown)
VH: QVQLVESGGGVVQPGRSLRLSCAASGFTFSSYGMHWVRQAPGKGLEWVAFIRYDGSNKYYADSVKGRFTISRDNSKNTLYLQMNSLRAEDTAVYYCKTHGSHDNWGQGTMVTVSS
VL: QSVLTQPPSVSGAPGQRVTISCSGSRSNIGSNTVKWYQQLPGTAPKLLIYYNDQRPSGVPDRFSGSKSGTSASLAITGLQAEDEADYYCQSYDRYTHPALLFGTGTKVTVLG
IC50 (M), IL-12-induced IFN-γ production by PHA blast cells [3]: 5e-12 M
